This is an account of results in PMC6220978, “Induced conformational changes activate the peptidoglycan synthase PBP1B” (Molecular Microbiology, 2018).

Where a chain is given by its changes, count along the chain named.

Common to all, as to test: SPR; PBP1B versions immobilised to the chip surface; CpoB versions injected from either 3.9 nM to 2 μM or from 78 nM to 40 μM; apparent KD by non-linear regression, at least three independent experiments
Holding throughout (conditions): both partners purified

The target in one test is T1, PBP1B D443A (E. coli, UniProt P02919 46-844, D443A).
T1 construct: PBP1B, E. coli, residues 46-844, made by mutagenesis of pDML924; source: E. coli BL21(DE3), purified (membrane extract, HisTrap, thrombin, HiTrap SP ion exchange)
T1 sequence (looked up): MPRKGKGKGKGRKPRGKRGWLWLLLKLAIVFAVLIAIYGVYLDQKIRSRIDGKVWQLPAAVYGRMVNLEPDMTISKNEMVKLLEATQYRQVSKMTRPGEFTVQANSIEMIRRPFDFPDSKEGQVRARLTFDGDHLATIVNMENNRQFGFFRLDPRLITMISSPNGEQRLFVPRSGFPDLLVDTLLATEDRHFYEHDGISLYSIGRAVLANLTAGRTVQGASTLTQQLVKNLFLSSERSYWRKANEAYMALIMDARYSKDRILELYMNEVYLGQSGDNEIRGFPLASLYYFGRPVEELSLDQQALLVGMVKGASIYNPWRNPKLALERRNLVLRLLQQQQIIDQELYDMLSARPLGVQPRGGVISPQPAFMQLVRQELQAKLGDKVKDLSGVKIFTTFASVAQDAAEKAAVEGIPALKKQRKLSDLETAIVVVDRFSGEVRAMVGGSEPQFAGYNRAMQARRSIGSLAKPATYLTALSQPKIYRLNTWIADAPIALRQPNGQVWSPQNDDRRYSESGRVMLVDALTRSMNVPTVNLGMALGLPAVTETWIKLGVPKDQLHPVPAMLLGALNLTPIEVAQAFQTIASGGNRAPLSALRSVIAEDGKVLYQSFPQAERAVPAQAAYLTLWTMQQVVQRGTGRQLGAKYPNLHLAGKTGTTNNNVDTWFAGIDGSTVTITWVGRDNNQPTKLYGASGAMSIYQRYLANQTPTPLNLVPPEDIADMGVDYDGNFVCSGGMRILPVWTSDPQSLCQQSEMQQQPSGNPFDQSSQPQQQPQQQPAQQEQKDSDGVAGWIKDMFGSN

A further test deals with T2, PBP1B N112G (E. coli, UniProt P02919 46-844, N112G).
T2 construct: PBP1B, E. coli, residues 46-844, made by mutagenesis of pDML924; source: E. coli BL21(DE3), purified (membrane extract, HisTrap, thrombin, HiTrap SP ion exchange)
T2 sequence (looked up): T1 sequence (looked up) with N67G, A398D

The target of a further test is T3, PBP1B E341A (E. coli, UniProt P02919 46-844, E341A).
T3 construct: PBP1B, E. coli, residues 46-844, made by mutagenesis of pDML924; source: E. coli BL21(DE3), purified (membrane extract, HisTrap, thrombin, HiTrap SP ion exchange)
T3 sequence (looked up): T1 sequence (looked up) with E296A, A398D

B1: CpoB (full length) (natural protein, E. coli, UniProt P45955 27-263, looked up)
chain: QAPISSVGSGSVEDRVTQLERISNAHSQLLTQLQQQLSDNQSDIDSLRGQIQENQYQLNQVVERQKQILLQIDSLSSGGAAAQSTSGDQSGAAASTTPTADAGTANAGAPVKSGNANTDYNAAIALVQDKSRQDDAMVAFQNFIKNYPDSTYLPNANYWLGQLNYNKGKKDDAAYYFASVVKNYPKSPKAADAMFKVGVIMQDKGDTAKAKAVYQQVISKYPGTDGAKQAQKRLNAM
notes: CpoB, E. coli; The coiled-coil construct begins at residue 27, so the purified 'full length' protein may lack the signal peptide (surmise); source: E. coli BL21(DE3), purified (HisTrap, Superdex 200), as in Gray et al. 2015
B1: the Kd with PBP1B D443A came out at 95 nM; with PBP1B N112G, 89 nM; in the test with PBP1B E341A, 77 nM.
